Test results as given in US20210269525A1 (BIOCYTOGEN PHARMACEUTICALS BEIJING, published 2021).

What was measured:
[1] = biological target: T1, human CD3e (T-cell surface glycoprotein CD3 epsilon chain) (human, UniProt P07766 23-207); test: cell-based or functional assay
[2] = biological target: T2, Cynomolgus CD3 epsilon Protein, His Tag (Acrobiosystems, Cat #CDE-05226) (cynomolgus (Macaca fascicularis), UniProt Q95LI5 22-117); test: SPR (Biacore), cynomolgus CD3e His tag
T2 construct: also called monkey CD3e; not shown: His tag
T2 sequence: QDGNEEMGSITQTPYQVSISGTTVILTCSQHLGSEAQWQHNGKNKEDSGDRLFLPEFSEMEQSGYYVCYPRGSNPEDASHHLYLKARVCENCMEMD
Protocol: The binding affinity of the anti-hCD3e antibodies with monkey CD3e (Cynomolgus CD3 epsilon Protein (SEQ ID NO: 39 AA Gln 22-Asp 117), His Tag, Acrobiosystems, Cat #CDE-05226) were also measured using surface plasmon resonance (SPR) using Biacore (Biacore, INC, Piscataway N.J.) by the methods as described in the examples.

[3] = biological target: T1, human CD3e (T-cell surface glycoprotein …); test: flow cytometry, human PBMC, antibody 0.1 µg/mL, anti-human IgG Fc-Alexa Fluor647 (1:500), anti-hTcRβ-PerCP (1:30)
Protocol: (§1) PBMC cells were collected from a human subject. After being thawed, the cells were cultured for 3-4 hours. The medium was then discarded, and the cells were resuspended in phosphate-buffered saline (PBS). The cell concentration was then adjusted to 2×10⁶/25 μl PBS.
(§2) A 96-well plate was prepared. 25 ul of cell suspension was added to each well. […] The cells and the antibodies were incubated. After centrifuge, the residues were discarded. The samples were washed again. 25 ul of PBS was then added to each well to resuspend cells.
(§3) Anti-human IgG Fc-Alexa Fluror647 (1:500) and anit-hTcRβ PerCP (1:30) were then added to each well. The cells and the antibodies were incubated and then the cells were washed again by PBS. 300 ul of PBS was then added to each well to resuspend the cells. FACS was performed.

[4] = biological target: T3, monkey CD3e (Macaca fascicularis) on PBMC (Macaca fascicularis, UniProt Q95LI5 22-198); test: flow cytometry, Macaca fascicularis PBMC, antibody concentration not given, anti-human IgG Fc-Alexa Fluor647 (1:500), anti-hTcRβ-PerCP (1:30)
T3 construct: Target on PBMC from Macaca fascicularis; also called mfCD3e; monkey PBMC
Protocol: A 96-well plate was prepared. 25 ul of cell suspension was added to each well. Anti-hCD3 antibodies were added to the 96-well plate. The cells and the antibodies were incubated for 15 minutes at 4° C. 185 ul PBS was then added to each well. After centrifuge at 2000 rpm for 5 minutes, the medium was discarded. The samples were washed again. 25 ul of PBS was then added to resuspend cells.
Anti-human IgG Fc-Alexa Fluror647 (1:500) and anti-hTcRβ PerCP (1:30) were then added to each well. The cells and the antibodies were incubated for 15 minutes at 4° C. 185 ul PBS was then added to each well. After centrifuge, the residues were discarded. The samples were washed again. 25 ul of PBS was then added to resuspend cells. […] In contrast, anti-hTcRβ PerCP cannot bind to monkey PBMC.

[5] = biological target: T1, human CD3e (T-cell surface glycoprotein …); test: flow cytometry, human PBMC, antibody 1 µg/mL, anti-human IgG Fc-Alexa Fluor647 (1:500), anti-hTcRβ-PerCP (1:30)
Protocol: as §1, §2, §3

[6] = biological target: T1, human CD3e (T-cell surface glycoprotein …); test: flow cytometry, human PBMC, antibody 10 µg/mL, anti-human IgG Fc-Alexa Fluor647 (1:500), anti-hTcRβ-PerCP (1:30)
Protocol: as §1
A 96-well plate was prepared. 25 ul of cell suspension was added to each well. Anti-hCD3e antibodies with different combinations of humanized 1B1 heavy chain variants and humanized 1B1 light chain variants were diluted to 20 ug/ml (2×) in PBS, and were added to the 96-well plate. The cells and the antibodies were incubated. After centrifuge, the residues were discarded. The samples were washed again. 25 ul of PBS was then added to each well to resuspend cells.
as §3

[7] = biological target: T4, Histidine-tagged human CD3e protein (human, UniProt P07766 23-126); test: SPR (Biacore), human CD3e
T4 construct: also called hCD3e-His; not shown: His tag

| EC50, luciferase of Jurkat-Luc-NFAT cells; antibody from supernatant [1] [µg/mL] | Kd [2] [nM] | koff [2] [s⁻¹] | kon [2] [M⁻¹ s⁻¹] | upper left quadrant, percent of cells AF647+ / hTcRβ-PerCP- [3] [%] | upper right quadrant, percent of cells AF647+ / hTcRβ-PerCP+ [3] [%] | upper left quadrant, percent of cells AF647+ / hTcRβ-PerCP- [4] [%] | upper right quadrant, percent of cells AF647+ / hTcRβ-PerCP+ [4] [%] | upper left quadrant, percent of cells AF647+ / hTcRβ-PerCP- [5] [%] | upper right quadrant, percent of cells AF647+ / hTcRβ-PerCP+ [5] [%] | upper left quadrant, percent of cells AF647+ / hTcRβ-PerCP- [6] [%] | upper right quadrant, percent of cells AF647+ / hTcRβ-PerCP+ [6] [%] | Kd [7] [nM] | koff [7] [s⁻¹] | kon [7] [M⁻¹ s⁻¹] | Binder |
| --- | --- | --- | --- | --- | --- | --- | --- | --- | --- | --- | --- | --- | --- | --- | --- |
| > 5.24 | 6.66 | 0.000665 | 99800 | 14.1 | 47.1 | 84.5 | 11.1 | 10.2 | 61 | 9.49 | 63.3 | 1.65 | 0.000881 | 535000 | 1B1-H2K2-IgG1-LALA (antibody, V domains shown, Humanized; human IgG1 with LALA mutations; also called H2K2 (humanized 1B1)) VH: QVQLVQSGAEVKKPGASVKLSCKASGYTFTSYWMHWVRQAPGQGLEWIGNIYPDSGTTNYGEKFKTRVTLTVDTSTSTAYMELSSLRSEDTAVYYCTRDTSGQYYFDYWGQGTLVTVSS VL: DIVMTQSPDSLAVSAGERVTMNCKSSQSLLNSRTRKNYLAWYQHKPGQSPKLLIYWASTRESGVPDRFSGSGSGTDFTLTISSLQAEDVAVYYCVQSFSLRAFGGGTKVEIK |
| > 3.06 |  |  |  | 11.8 | 55.5 | 78.8 | 18.3 | 11 | 61.2 | 7.75 | 65.2 | 1.37 | 0.000914 | 665000 | 1B1-H3K1-IgG1-LALA (antibody, V domains shown, Humanized; human IgG1 with LALA mutations; also called H3K1 (humanized 1B1)) VH: QVQLVQSGAEVKKPGASVKLSCKASGYTFTSYWMHWVRQRHGQGLEWIGNIYPDSGTTNYGEKFKTRVTLTVDTSTSTAYMELSSLRSEDTAVYYCTRDTSGQYYFDYWGQGTLVTVSS VL: DIVMTQSPDSLAVSAGERATMNCKSSQSLLNSRTRKNYLAWYQHKPGQSPKLLIYWASTRESGVPDRFSGSGSGTDFTLTISSLQAEDVAVYYCVQSFSLRAFGGGTKVEIK |
| 2.4 |  |  |  | 13.1 | 54.1 | 78.5 | 18.3 | 10.2 | 64.4 | 8.51 | 64.1 | 0.809 | 0.000653 | 807000 | 1B1-H4K1-IgG1-LALA (antibody, V domains shown, Humanized; human IgG1 with LALA mutations; also called H4K1 (humanized 1B1)) VH: QVQLVQSGAEVVKPGASVKLSCKASGYTFTSYWMHWVRQRHGQGLEWIGNIYPDSGTTNYGEKFKTRGTLTVDTSTSTAYMELSSLRSEDTAVYYCTRDTSGQYYFDYWGQGTLVTVSS VL: DIVMTQSPDSLAVSAGERATMNCKSSQSLLNSRTRKNYLAWYQHKPGQSPKLLIYWASTRESGVPDRFSGSGSGTDFTLTISSLQAEDVAVYYCVQSFSLRAFGGGTKVEIK |
| > 3.08 |  |  |  | 10.2 | 57.7 | 89.5 | 7.53 | 11.4 | 58.1 | 9.23 | 62 | 2.96 | 0.00062 | 209000 | 1B1-H3K2-IgG1-LALA (antibody, V domains shown, Humanized; human IgG1 with LALA mutations; also called H3K2 (humanized 1B1)) VH: QVQLVQSGAEVKKPGASVKLSCKASGYTFTSYWMHWVRQRHGQGLEWIGNIYPDSGTTNYGEKFKTRVTLTVDTSTSTAYMELSSLRSEDTAVYYCTRDTSGQYYFDYWGQGTLVTVSS VL: DIVMTQSPDSLAVSAGERVTMNCKSSQSLLNSRTRKNYLAWYQHKPGQSPKLLIYWASTRESGVPDRFSGSGSGTDFTLTISSLQAEDVAVYYCVQSFSLRAFGGGTKVEIK |
| 1.42 | 9.51 | 0.000869 | 91400 | 11.9 | 54.8 | 69.5 | 26.2 | 12 | 58 | 8.68 | 61.6 | 1.42 | 0.000621 | 438000 | 1B1-H1K1-IgG1-LALA (antibody, V domains shown, Humanized; human IgG1 with LALA mutations; also called H1K1 (humanized 1B1)) VH: QVQLVQSGAEVKKPGASVKVSCKASGYTFTSYWMHWVRQAPGQGLEWIGNIYPDSGTTNYGEKFKTRVTLTVDTSTSTAYMELSSLRSEDTAVYYCTRDTSGQYYFDYWGQGTLVTVSS VL: DIVMTQSPDSLAVSAGERATMNCKSSQSLLNSRTRKNYLAWYQHKPGQSPKLLIYWASTRESGVPDRFSGSGSGTDFTLTISSLQAEDVAVYYCVQSFSLRAFGGGTKVEIK |
| > 3 |  |  |  | 12.6 | 54 | 73.2 | 24.4 | 10.4 | 61.7 | 11 | 59.7 | 0.959 | 0.000614 | 640000 | 1B1-H4K2-IgG1-LALA (antibody, V domains shown, Humanized; human IgG1 with LALA mutations; also called H4K2 (humanized 1B1)) VH: QVQLVQSGAEVVKPGASVKLSCKASGYTFTSYWMHWVRQRHGQGLEWIGNIYPDSGTTNYGEKFKTRGTLTVDTSTSTAYMELSSLRSEDTAVYYCTRDTSGQYYFDYWGQGTLVTVSS VL: DIVMTQSPDSLAVSAGERVTMNCKSSQSLLNSRTRKNYLAWYQHKPGQSPKLLIYWASTRESGVPDRFSGSGSGTDFTLTISSLQAEDVAVYYCVQSFSLRAFGGGTKVEIK |
| > 4.54 |  |  |  | 11.9 | 54.7 | 87.1 | 10.1 | 10.2 | 61.9 | 10.7 | 62.4 | 1.16 | 0.000583 | 502000 | 1B1-H4K3-IgG1-LALA (antibody, V domains shown, Humanized; human IgG1 with LALA mutations; also called H4K3 (humanized 1B1)) VH: QVQLVQSGAEVVKPGASVKLSCKASGYTFTSYWMHWVRQRHGQGLEWIGNIYPDSGTTNYGEKFKTRGTLTVDTSTSTAYMELSSLRSEDTAVYYCTRDTSGQYYFDYWGQGTLVTVSS VL: DIVMTQSPDSLAVSAGERVTMNCKSSQSLLNSRTRKNYLAWYQHKPGQSPKLLIYWASTRESGVPDRFSGSGSGTDFTLTISSVQAEDVAVYYCVQSFSLRAFGGGTKLEIK |
